Reference: the supplement of paper PMC9112550, “Optimization of the antimicrobial peptide Bac7 by deep mutational scanning” (BMC Biology, 2022)

Test system: Escherichia coli TOP10
Test: shrunken log2 fold change of peptide-encoding DNA abundance (4.5 h post-induction vs induction); higher = less antimicrobial activity (less host growth inhibition)
Settings: time post-induction: 4.5 h; library: site-saturation at positions 5, 18, 19, 20
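Note: peptides expressed intracellularly from a pBAD plasmid library in pooled LB shake-flask culture, induced with 0.3% L-arabinose, DNA abundance read by NGS, three biological replicates, DESeq2 with apeglm shrinkage.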

| Sequence | shrunken log2 fold change |
| --- | --- |
| RRIRYRPPRLPRPRPRPYCIPRP | -1.32 |
| RRIRRRPPRLPRPRPRPSLQPRP | 0.334 |
| RRIRLRPPRLPRPRPRPPMRPRP | 1 |
| RRIRERPPRLPRPRPRPNFIPRP | -0.442 |
| RRIRARPPRLPRPRPRPNARPRP | 0.124 |
| RRIRERPPRLPRPRPRPHLLPRP | 0.0196 |
| RRIRVRPPRLPRPRPRPTGWPRP | 0.377 |
| RRIRARPPRLPRPRPRPIQQPRP | 0.0227 |
| RRIRKRPPRLPRPRPRPWHEPRP | -0.0363 |
| RRIRKRPPRLPRPRPRPEDWPRP | 2.01 |
| RRIRNRPPRLPRPRPRPLYWPRP | -0.437 |
| RRIRWRPPRLPRPRPRPTSAPRP | 0.389 |
| RRIRVRPPRLPRPRPRPVKMPRP | 0.0133 |
| RRIRRRPPRLPRPRPRPRSVPRP | 0.234 |
| RRIRFRPPRLPRPRPRPELSPRP | 0.0455 |
| RRIRARPPRLPRPRPRPRYCPRP | -0.15 |
| RRIRPRPPRLPRPRPRPATQPRP | 0.133 |
| RRIRDRPPRLPRPRPRPPPEPRP | 0.48 |
| RRIRWRPPRLPRPRPRPANLPRP | -0.285 |
| RRIRIRPPRLPRPRPRPTAWPRP | 0.152 |
| RRIRDRPPRLPRPRPRPWCEPRP | -0.093 |
| RRIRKRPPRLPRPRPRPSDKPRP | -0.41 |
| RRIRQRPPRLPRPRPRPVGMPRP | 0.18 |
| RRIRSRPPRLPRPRPRPGGSPRP | 0.0707 |
| RRIRNRPPRLPRPRPRPTTVPRP | -0.12 |

| Sequence | shrunken log2 fold change |
| --- | --- |
| RRIRMRPPRLPRPRPRPMLGPRP | 0.141 |
| RRIRKRPPRLPRPRPRPSEVPRP | -0.524 |
| RRIRWRPPRLPRPRPRPFFIPRP | -0.309 |
| RRIRMRPPRLPRPRPRPCPCPRP | 0.495 |
| RRIRNRPPRLPRPRPRPNRGPRP | 0.0523 |
| RRIRTRPPRLPRPRPRPKPIPRP | 0.0226 |
| RRIRIRPPRLPRPRPRPALEPRP | -0.0629 |
| RRIRKRPPRLPRPRPRPNTSPRP | 0.0472 |
| RRIRRRPPRLPRPRPRPGSGPRP | 0.407 |
| RRIRQRPPRLPRPRPRPAKPPRP | -0.0548 |
| RRIRHRPPRLPRPRPRPILIPRP | -0.0862 |
| RRIRSRPPRLPRPRPRPNICPRP | -0.0465 |
| RRIRTRPPRLPRPRPRPQHQPRP | -0.132 |
| RRIRRRPPRLPRPRPRPNDSPRP | -0.286 |
| RRIRLRPPRLPRPRPRPQPRPRP | 0.67 |
| RRIRMRPPRLPRPRPRPKRTPRP | 3.45 |
| RRIRFRPPRLPRPRPRPWDFPRP | -0.0975 |
| RRIRYRPPRLPRPRPRPRPMPRP | -0.227 |
| RRIRIRPPRLPRPRPRPWPTPRP | 0.331 |
| RRIRYRPPRLPRPRPRPFTQPRP | -0.646 |
| RRIRLRPPRLPRPRPRPGFHPRP | 0.0368 |
| RRIRVRPPRLPRPRPRPVKCPRP | -0.163 |
| RRIRSRPPRLPRPRPRPRAEPRP | 0.492 |
| RRIRARPPRLPRPRPRPTQQPRP | -0.0711 |
| RRIRCRPPRLPRPRPRPGWIPRP | 0.198 |

| Sequence | shrunken log2 fold change |
| --- | --- |
| RRIRWRPPRLPRPRPRPNIPPRP | -0.476 |
| RRIRNRPPRLPRPRPRPGGIPRP | -0.109 |
| RRIRSRPPRLPRPRPRPQTEPRP | -0.0463 |
| RRIRTRPPRLPRPRPRPIYEPRP | -0.246 |
| RRIRQRPPRLPRPRPRPAEMPRP | -0.0227 |
| RRIRNRPPRLPRPRPRPTTGPRP | 0.0259 |
| RRIRCRPPRLPRPRPRPCHCPRP | 0.00562 |
| RRIRMRPPRLPRPRPRPCGHPRP | 0.0237 |
| RRIRYRPPRLPRPRPRPRVYPRP | -0.847 |
| RRIRRRPPRLPRPRPRPVCEPRP | 0.935 |
| RRIRQRPPRLPRPRPRPVGAPRP | 0.489 |
| RRIRRRPPRLPRPRPRPHTGPRP | -0.105 |
| RRIRNRPPRLPRPRPRPQWWPRP | 0.034 |
| RRIRWRPPRLPRPRPRPFQAPRP | -0.222 |
| RRIRERPPRLPRPRPRPSLRPRP | -0.313 |
| RRIRPRPPRLPRPRPRPPDPPRP | 0.742 |
| RRIRQRPPRLPRPRPRPFMCPRP | -0.371 |
| RRIRDRPPRLPRPRPRPEQWPRP | -0.0491 |
| RRIRKRPPRLPRPRPRPQNVPRP | -0.0694 |
| RRIRFRPPRLPRPRPRPEQRPRP | -0.0295 |
| RRIRQRPPRLPRPRPRPRVAPRP | 0.337 |
| RRIRVRPPRLPRPRPRPAQFPRP | 0.341 |
| RRIRKRPPRLPRPRPRPGNEPRP | 0.204 |
| RRIRMRPPRLPRPRPRPDPLPRP | 0.255 |
| RRIRERPPRLPRPRPRPQCEPRP | -0.0239 |

| Sequence | shrunken log2 fold change |
| --- | --- |
| RRIRWRPPRLPRPRPRPQVWPRP | 0.576 |
| RRIRPRPPRLPRPRPRPKYEPRP | -0.203 |
| RRIRNRPPRLPRPRPRPKNTPRP | -0.462 |
| RRIRSRPPRLPRPRPRPCCPPRP | -0.0457 |
| RRIRSRPPRLPRPRPRPKRPPRP | 0.413 |
| RRIRHRPPRLPRPRPRPINYPRP | -0.248 |
| RRIRFRPPRLPRPRPRPFCTPRP | -0.19 |
| RRIRQRPPRLPRPRPRPSPAPRP | 0.611 |
| RRIRFRPPRLPRPRPRPMNHPRP | -0.327 |
| RRIRCRPPRLPRPRPRPEYNPRP | -0.243 |
| RRIRRRPPRLPRPRPRPHSFPRP | 0.199 |
| RRIRWRPPRLPRPRPRPPIMPRP | 0.271 |
| RRIRKRPPRLPRPRPRPQNYPRP | -0.196 |
| RRIRQRPPRLPRPRPRPQFAPRP | -0.00983 |
| RRIRIRPPRLPRPRPRPHNEPRP | -1.35 |
| RRIRPRPPRLPRPRPRPGMHPRP | 0.206 |
| RRIRCRPPRLPRPRPRPAKNPRP | 0.00465 |
| RRIRIRPPRLPRPRPRPNDKPRP | -0.647 |
| RRIRIRPPRLPRPRPRPEMKPRP | -0.037 |
| RRIRARPPRLPRPRPRPVTQPRP | 0.0996 |
| RRIRLRPPRLPRPRPRPTRTPRP | 0.243 |
| RRIRQRPPRLPRPRPRPCGIPRP | -0.115 |
| RRIRLRPPRLPRPRPRPVNFPRP | -0.13 |
| RRIRHRPPRLPRPRPRPYTKPRP | 0.0561 |
| RRIRYRPPRLPRPRPRPQVSPRP | -0.849 |

| Sequence | shrunken log2 fold change |
| --- | --- |
| RRIRWRPPRLPRPRPRPDLEPRP | 0.974 |
| RRIRPRPPRLPRPRPRPLLSPRP | 0.0345 |
| RRIRARPPRLPRPRPRPVADPRP | 1.44 |
| RRIRVRPPRLPRPRPRPRCSPRP | -0.212 |
| RRIRWRPPRLPRPRPRPYWEPRP | -0.0146 |
| RRIRARPPRLPRPRPRPMEKPRP | -0.00226 |
| RRIRSRPPRLPRPRPRPSSMPRP | -0.422 |
| RRIRQRPPRLPRPRPRPFEIPRP | 0.0112 |
| RRIRLRPPRLPRPRPRPTFLPRP | -0.153 |
| RRIRARPPRLPRPRPRPWNGPRP | 0.0566 |
| RRIRWRPPRLPRPRPRPALHPRP | 0.277 |
| RRIRVRPPRLPRPRPRPQVRPRP | 0.0179 |
| RRIRNRPPRLPRPRPRPFYSPRP | 0.0464 |
| RRIRCRPPRLPRPRPRPKMEPRP | -0.204 |
| RRIRSRPPRLPRPRPRPDDPPRP | 0.0348 |
| RRIRPRPPRLPRPRPRPGQFPRP | -0.0723 |
| RRIRWRPPRLPRPRPRPRMNPRP | -0.111 |
| RRIRNRPPRLPRPRPRPVTQPRP | 0.0396 |
| RRIRIRPPRLPRPRPRPWCRPRP | -0.521 |
| RRIRIRPPRLPRPRPRPTMLPRP | -0.487 |
| RRIRYRPPRLPRPRPRPCLPPRP | -0.409 |
| RRIRLRPPRLPRPRPRPEFLPRP | -0.108 |
| RRIRWRPPRLPRPRPRPWPQPRP | 0.273 |
| RRIRFRPPRLPRPRPRPLKQPRP | 0.053 |
| RRIRQRPPRLPRPRPRPEWFPRP | -0.00295 |
